{
  "source": "patent US20210100896A1",
  "about": "“METHODS AND COMPOSITIONS FOR STIMULATING THE IMMUNE SYSTEM” (University of Miami, priority 2017, published 2021)",
  "origin": "cited, not measured here",
  "molecules": {"B1": {"name": "Flt3L: cytokine that promotes hematopoietic progenitor commitment to the DC lineage (protein, UniProt P49771 27-235, looked up)", "Fms-related tyrosine kinase 3 …": "TQDCSFQHSPISSDFAVKIRELSDYLLQDYPVTVASNLQDEELCGGLWRLVLAQRWMERLKTVAGSKMQGLLERVNTEIHFVTKCAFQPPPSCLRFVQTNISRLLQETSEQLVALKPWITRQNFSRCLELQCQPDSSTLPPPWSPRPLEATAPTAPQPPLLLLLLLPVGLLLLAAAWCLHWQRTRRRTPRPGEQVPPVPSPQDLLLVEH"}},
  "system": "tumor",
  "conditions": "tumor bearing mice",
  "data": [
    {"molecule": "B1", "values": [
      {"measurement": "intratumoral accumulation of DC and tumor inhibition", "result": "enhanced intratumoral accumulation of DC and tumor inhibition"}
    ]}
  ]
}
